Test results published in publication PMC4993455.

What was measured:
[1] = biological target: recombinant methionine adenosyltransferase α1 (MATα1) (rat) (UniProt P13444)
[2] = biological target: recombinant human methionine adenosyltransferase α2 (MATα2) (human) (UniProt P31153)
recombinant human methionine adenosyltransferase α2 (MATα2) (human), sequence (P31153 whole entry): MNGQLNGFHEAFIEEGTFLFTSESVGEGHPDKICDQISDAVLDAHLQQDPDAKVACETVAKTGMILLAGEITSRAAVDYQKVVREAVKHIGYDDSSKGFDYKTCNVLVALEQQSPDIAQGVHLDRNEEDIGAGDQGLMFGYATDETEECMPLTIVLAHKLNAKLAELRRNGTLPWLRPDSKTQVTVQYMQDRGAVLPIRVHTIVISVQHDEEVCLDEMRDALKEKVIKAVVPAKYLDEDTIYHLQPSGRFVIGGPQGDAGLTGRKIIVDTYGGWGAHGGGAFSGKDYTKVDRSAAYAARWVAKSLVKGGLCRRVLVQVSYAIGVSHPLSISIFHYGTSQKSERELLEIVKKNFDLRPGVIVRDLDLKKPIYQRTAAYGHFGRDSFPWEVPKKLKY

recombinant PDRG1 (tag excised), sequence (Q642A0 whole entry): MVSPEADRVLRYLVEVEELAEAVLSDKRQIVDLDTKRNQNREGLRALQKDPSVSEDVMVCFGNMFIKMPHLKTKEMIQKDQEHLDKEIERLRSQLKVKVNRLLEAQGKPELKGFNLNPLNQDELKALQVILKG
recombinant methionine adenosyltransferase α1 (MATα1) (rat), sequence (P13444 whole entry): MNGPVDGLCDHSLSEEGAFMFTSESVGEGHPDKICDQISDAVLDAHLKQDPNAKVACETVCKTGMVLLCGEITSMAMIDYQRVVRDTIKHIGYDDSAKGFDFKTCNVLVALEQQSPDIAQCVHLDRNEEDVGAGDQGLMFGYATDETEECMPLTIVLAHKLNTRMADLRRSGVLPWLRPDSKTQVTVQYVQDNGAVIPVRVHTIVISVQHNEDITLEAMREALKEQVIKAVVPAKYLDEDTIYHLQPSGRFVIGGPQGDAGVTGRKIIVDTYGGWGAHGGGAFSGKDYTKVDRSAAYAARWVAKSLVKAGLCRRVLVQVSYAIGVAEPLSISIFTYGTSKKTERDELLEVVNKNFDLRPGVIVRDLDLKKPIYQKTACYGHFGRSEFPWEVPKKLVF

Question: For “recombinant PDRG1 (tag excised) (from UniProt Q642A0 1-133) (natural protein)”, which IC50 of PDRG1 (0–5.6 μM) on S-adenosylmethionine synthesis by purified recombinant MATα1 homo-oligomers (0.7 μM) [1] is on record?
Answer: The IC50 of PDRG1 (0–5.6 μM) on S-adenosylmethionine synthesis by purified recombinant MATα1 homo-oligomers (0.7 μM) was 3.34 µM.

Question: What about the reduction in AdoMet synthesis by MATα1 homo-oligomers (0.7 μM) with increasing concentrations of PDRG1 (0–5.6 μM) [1] of the same substance?
Answer: Its reduction in AdoMet synthesis by MATα1 homo-oligomers (0.7 μM) with increasing concentrations of PDRG1 (0–5.6 μM) is < 50%.

Question: What about the IC50 of PDRG1 on S-adenosylmethionine synthesis by purified recombinant MATα2 homo-oligomers (0.7 μM) [2] of the same substance?
Answer: The IC50 of PDRG1 on S-adenosylmethionine synthesis by purified recombinant MATα2 homo-oligomers (0.7 μM) was 3.79 µM.

Question: And the reduction in AdoMet synthesis by MATα2 homo-oligomers (0.7 μM) with increasing concentrations of PDRG1 [2]?
Answer: The reduction in AdoMet synthesis by MATα2 homo-oligomers (0.7 μM) with increasing concentrations of PDRG1 was < 50%.
